The record followed here is PMC5708776, “Crystal structure of a tripartite complex between C3dg, C-terminal domains of factor H and OspE of Borrelia burgdorferi” (PLoS ONE, 2017).

The target of this test is T1, C3dg (residues 955 to 1303 of complement C3), C1010A (UniProt P01024 955-1303, C1010A).
T1 construct: complement C3, C3dg fragment, residues 955-1303; C1010A prevents thioester formation; a second change (printed A1153E) was made to reverse a mutation of the original gene, so that the natural residue stands at 1153; The His6 tag was moved from the N-terminus to the C-terminus (TEV-His6) and removed with TEV protease; residues of the TEV site probably remain at the C-terminus; also called C3dg …
Briefly: crystal structure; three purified proteins mixed at a 1:1:1 molar ratio before crystallisation at 20 °C (PEG 3350, Hepes pH 7.5 or Tris pH 8.5); 3.18 Å; three heterotrimers in the asymmetric unit. The note with it: both partners purified.

T1 sequence (P01024 955-1303 C1010A): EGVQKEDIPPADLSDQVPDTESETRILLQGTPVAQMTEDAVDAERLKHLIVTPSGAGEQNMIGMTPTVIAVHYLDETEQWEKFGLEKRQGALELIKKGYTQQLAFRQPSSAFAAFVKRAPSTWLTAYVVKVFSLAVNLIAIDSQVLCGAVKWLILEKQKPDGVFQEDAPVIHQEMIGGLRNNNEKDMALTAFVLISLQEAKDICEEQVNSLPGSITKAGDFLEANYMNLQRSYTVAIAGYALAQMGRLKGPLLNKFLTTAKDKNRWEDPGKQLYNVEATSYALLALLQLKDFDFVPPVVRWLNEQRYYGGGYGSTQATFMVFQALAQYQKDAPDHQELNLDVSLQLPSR

B1: C-terminal domains 19-20 of human factor H (FH19-20), wild type (domain or fragment)
chain: KDSTGKCGPPPPIDNGDITSFPLSVYAPASSVEYQCQNLYQLEGNKRITCRNGQWSEPPKCLHPCVISREIMENYNIALRWTAKQKLYSRTGESVEFVCKRGYRLSSRSHTLRTTCWDGKLEYPTCAKR
notes: human complement factor H, domains (SCRs) 19-20; also called C-terminus of human factor H
As for B1, the binding result is “binds”.
